From US20260049148A1, “PROTEASE-CLEAVABLE MOIETIES AND METHODS OF USE THEREOF” (CytomX Therapeutics, Inc., priority 2022, published 2026)
Square brackets hold non-standard residues; d marks the D form. Ends that are not written are not given here. * marks the point of attachment. Dnp = O=[N+]([O-])c1ccc(*)c([N+](=O)[O-])c1; Mca = COc1ccc2c(CC(=O)*)cc(=O)oc2c1

Tests used:
Test in all cases: Internally quenched peptide probe cleavage assay
Type in all cases: biochemical
Details in all cases: 20 μM internally quenched peptide probe, 20 nM protease, 37° C.
MMP14 = MMP14 (Homo sapiens, UniProt P50281)
Text: (§1) The study provided herein evaluated the cleavability kinetics (i.e., pM/s and kcat/KM (M^−1s^−1)) of CMs with matrix metalloprotease (MMP) 2 (MMP2), MMP9, and MMP14. The CM AIALY (SEQ ID NO: 5) was presented in an internally quenched peptide probe format, rather than included in an activatable antibody format. In the internally quenched probe, the CM sequence was positioned between a 7-methoxycoumarin-4-acetyl (MCA) fluorophore and a 2,4-dinitrophenyl (DNP) quencher such that cleavage of the CM sequence produces a fluorescence signal. The probe was of the following design: (MCA)-[…](DNP)-D-Arg (SEQ ID NO: 160). The cleavage rates (pM/s) were measured using 20 μM internally quenched peptide probe and 20 nM MMP2, MMP9, or MMP14. Cleavability kinetics (i.e., pM/s and kcat/KM (M^−1s^−1)) were determined in 96- or 384-well plate format at 37° C. in the following buffers: 50 mM Tris-HCl (pH 7.5), 10 mM CaCl2), 150 mM NaCl, 0.05% (w/v) Brij-35 for MMP2 and MMP9 or 50 mM HEPES (pH 6.8), 10 mM CaCl2), 0.5 mM MgCl2, 0.05% (w/v) Brij-35 for MMP14. Cleavability kinetics were determined on an Infinite 200 PRO (Tecan) multimode plate reader using a fluorescence excitation wavelength of 320 nm and an emission wavelength of 405 nm.

MMP2 = target: T1, MMP2 (Homo sapiens, UniProt P08253)
T1 sequence (P08253 110-660): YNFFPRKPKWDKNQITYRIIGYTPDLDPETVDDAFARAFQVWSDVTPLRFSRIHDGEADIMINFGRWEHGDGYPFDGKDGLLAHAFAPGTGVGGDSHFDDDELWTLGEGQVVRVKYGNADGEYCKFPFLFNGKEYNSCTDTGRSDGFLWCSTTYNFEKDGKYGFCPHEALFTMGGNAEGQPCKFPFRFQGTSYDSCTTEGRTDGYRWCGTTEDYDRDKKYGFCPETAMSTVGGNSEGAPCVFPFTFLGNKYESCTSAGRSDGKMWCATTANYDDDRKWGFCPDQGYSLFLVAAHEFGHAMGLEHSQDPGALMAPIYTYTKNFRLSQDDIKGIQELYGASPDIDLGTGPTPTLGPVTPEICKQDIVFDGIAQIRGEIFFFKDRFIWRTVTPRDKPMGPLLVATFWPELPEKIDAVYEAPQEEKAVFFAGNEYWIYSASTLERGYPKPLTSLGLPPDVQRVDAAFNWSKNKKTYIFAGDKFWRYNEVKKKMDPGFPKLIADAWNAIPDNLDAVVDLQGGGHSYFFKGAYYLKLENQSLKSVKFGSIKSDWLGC
Text: as §1

MMP9 = MMP9 (Homo sapiens, UniProt P14780)
MMP9, sequence (P14780 94-707): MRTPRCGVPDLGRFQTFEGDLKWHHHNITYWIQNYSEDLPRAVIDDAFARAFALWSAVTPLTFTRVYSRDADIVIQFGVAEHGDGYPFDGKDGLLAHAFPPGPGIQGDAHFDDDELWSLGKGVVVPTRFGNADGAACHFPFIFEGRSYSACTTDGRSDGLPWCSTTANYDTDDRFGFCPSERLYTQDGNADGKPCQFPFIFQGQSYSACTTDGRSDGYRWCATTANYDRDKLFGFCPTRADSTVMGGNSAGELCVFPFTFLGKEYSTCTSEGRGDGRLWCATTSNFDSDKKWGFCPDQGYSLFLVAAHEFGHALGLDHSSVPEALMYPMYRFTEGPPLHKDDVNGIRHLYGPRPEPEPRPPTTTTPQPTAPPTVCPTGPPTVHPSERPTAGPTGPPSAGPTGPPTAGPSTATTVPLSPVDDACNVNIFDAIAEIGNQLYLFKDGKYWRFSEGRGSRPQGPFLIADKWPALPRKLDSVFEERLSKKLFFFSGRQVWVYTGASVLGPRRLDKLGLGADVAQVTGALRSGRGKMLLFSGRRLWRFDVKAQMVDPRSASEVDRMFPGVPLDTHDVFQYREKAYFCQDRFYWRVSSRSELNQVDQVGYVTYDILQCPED
Text: as §1

Probe Cleavage (pM/s) MMP14 (MMP14): 145 pM/s | Probe Cleavage (pM/s) MMP2 (MMP2): 135 pM/s | Probe Cleavage (pM/s) MMP9 (MMP9): 87.7 pM/s
Substance: (MCA)-Gly-Ser-Ala-Ile-Ala-Leu-Tyr-Gly-Gly-Ser-Lys (DNP)-D-Arg (Mca-GSAIALYGGSK(Dnp)[dR])
